In test [1] the target is T1, human complement C1s enzyme (activated C1s) (human, UniProt P09871 16-437; P09871 438-688).
T1 sequence 1: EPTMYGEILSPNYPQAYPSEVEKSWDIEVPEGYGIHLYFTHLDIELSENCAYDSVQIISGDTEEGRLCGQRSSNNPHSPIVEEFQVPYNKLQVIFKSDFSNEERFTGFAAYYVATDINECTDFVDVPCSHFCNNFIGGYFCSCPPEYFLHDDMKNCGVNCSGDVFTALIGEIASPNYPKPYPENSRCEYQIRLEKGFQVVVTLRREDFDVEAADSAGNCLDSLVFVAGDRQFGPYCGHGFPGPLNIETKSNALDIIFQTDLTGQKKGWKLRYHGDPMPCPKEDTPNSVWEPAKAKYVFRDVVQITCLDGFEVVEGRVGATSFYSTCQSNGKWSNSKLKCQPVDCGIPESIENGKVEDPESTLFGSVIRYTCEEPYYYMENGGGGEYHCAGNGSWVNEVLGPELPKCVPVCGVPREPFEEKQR
T1 sequence 2: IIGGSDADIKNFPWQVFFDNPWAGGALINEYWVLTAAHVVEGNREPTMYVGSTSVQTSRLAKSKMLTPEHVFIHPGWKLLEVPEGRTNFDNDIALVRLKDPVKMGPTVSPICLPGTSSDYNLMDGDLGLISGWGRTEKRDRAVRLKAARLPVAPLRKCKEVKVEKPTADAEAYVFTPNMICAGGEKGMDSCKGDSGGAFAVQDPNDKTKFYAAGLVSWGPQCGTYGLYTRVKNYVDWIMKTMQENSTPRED
The experiment in a line: cell-based or functional assay.

The target in test [2] is T2, human complement factor Bb (human, UniProt P00751 260-764). The test is described as follows: cell-based or functional assay.
T2 sequence (P00751 260-764): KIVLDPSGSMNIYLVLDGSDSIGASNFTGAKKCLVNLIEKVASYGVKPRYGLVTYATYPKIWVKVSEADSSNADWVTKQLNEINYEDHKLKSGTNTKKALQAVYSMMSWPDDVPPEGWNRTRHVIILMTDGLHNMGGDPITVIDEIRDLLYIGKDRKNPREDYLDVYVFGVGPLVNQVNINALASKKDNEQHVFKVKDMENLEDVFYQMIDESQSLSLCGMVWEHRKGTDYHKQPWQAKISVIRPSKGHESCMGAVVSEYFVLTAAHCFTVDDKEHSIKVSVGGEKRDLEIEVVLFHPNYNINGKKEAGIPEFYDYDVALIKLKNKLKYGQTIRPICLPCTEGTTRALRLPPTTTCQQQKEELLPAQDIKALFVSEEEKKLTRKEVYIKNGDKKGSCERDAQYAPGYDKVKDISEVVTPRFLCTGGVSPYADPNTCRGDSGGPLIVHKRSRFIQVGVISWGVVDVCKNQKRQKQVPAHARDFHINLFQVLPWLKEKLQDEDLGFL
In test [3] the target is T1, human complement C1s enzyme (activated …). The test is described as follows: BLI (Octet), biotinylated target on streptavidin sensor. An excerpt:
(§1) Bio-layer interferometry (BLI) was used to assess the recombinant proteins' target engagement to and binding affinity for complement C1s enzyme (active C1s or “C1s” herein) and factor Bb (Bb) (Complement Technology, Tyler, TX, USA). C1s and Bb were biotinylated with EZ-Link™ Sulfo-NHS-LC-LC-Biotin (Thermo Fisher, Waltham, MA, USA) according to manufacturer instructions. Biotinylated C1s or Bb was loaded on Octet® Streptavidin (SA) Biosensors (Sartorius, Göttingen, Germany), followed by a concentration range of purified proteins. To assess dual target engagement, biotinylated active C1s or Bb was loaded onto sensors, followed by purified proteins (“first association phase”), followed by the non-captured complement target (Bb or active C1s, non-biotinylated; “second association phase”). The assays were performed at 30° C. using PBS with 0.1% Tween 20 as a diluent (FIG. 3).
(In general: In BLI a coated tip is dipped into the sample, and binding shifts an interference pattern.)

Test [4] deals with T2, human complement factor Bb. The description is as above.
Description: as §1

B1: construct #15: αC1s scFab-(G4S)3-αBb scFv (bispecific antibody)
chain: DIVLTQSPDSLAVSLGERATISCKASQSVDYDGDSYMNWYQQKPGQPPKILIYDASNLESGIPARFSGSGSGTDFTLTISSLEPEDFAIYYCQQSNEDPWTFGGGTKVEIKRTVAAPSVFIFPPSDEQLKSGTASVVCLLNNFYPREAKVQWKVDNALQSGNSQESVTEQDSKDSTYSLSSTLTLSKADYEKHKVYACEVTHQGLSSPVTKSFNRGECGGGGSGGGGSGGGGSGGGGSGGGGSGGGGSGGGGSQVQLVQSGAEVKKPGASVKLSCTASGFNIKDDYIHWVKQAPGQGLEWIGRIDPADGHTKYAPKFQVKVTITADTSTSTAYLELSSLRSEDTAVYYCARYGYGREVFDYWGQGTTVTVSSASTKGPSVFPLAPCSRSTSESTAALGCLVKDYFPEPVTVSWNSGALTSGVHTFPAVLQSSGLYSLSSVVTVPSSSLGTKTYTCNVDHKPSNTKVDKRVGGGGSGGGGSGGGGSEVQLVESGGGLVKPGGSLRLSCAASGFTFSNYAMSWVRQAPGKRLEWVATISNRGSYTYYPDSVKGRFTISRDNAKNSLYLQMNSLRAEDTALYYCARERPMDYWGQGTLVTVSSGGGGSGGGGSGGGGSDIQMTQSPSTLSASVGDRVTITCKASQDVGTAVAWYQQKPGKAPKLLIYWASTRHTGVPDRFSGSGSGTDFTLTISSLQAEDFAVYFCHQHSSNPLTFGQGTKLEIK
notes: Residues 1-20 were left out as the signal peptide, which is marked by boldface only
With B1, the “IC50 CP (Wieslab)” value in test [1] amounted to 34.7 nM. Also, in test [2], the “IC50 AP (Wieslab)” value came to 405 nM. In test [3], the affinity, expressed as Kd, was 1.6 nM; the koff (usually a measure of how fast the partners let go of each other) came out at 0.00057 s⁻¹; the kon (as a rule, a measure of how fast the partners come together) is 370000 M⁻¹ s⁻¹. Also, in test [4], binding was characterised by a dissociation constant (Kd) of 3.9 nM, the koff is 0.00045 s⁻¹ and the on-rate constant (kon) worked out at 120000 M⁻¹ s⁻¹.

B2: construct #16: αC1s scFab-(G4S)3-αBb scFv-CM (bispecific antibody)
chain: DIVLTQSPDSLAVSLGERATISCKASQSVDYDGDSYMNWYQEKPGQPPKILIYDASNLESGIPARFSGSGSGTDFTLTISSLEPEDFAIYYCQQSNEDPWTFGGGTKVEIKRTVAAPSVFIFPPSDEQLKSGTASVVCLLNNFYPREAKVQWKVDNALQSGNSQESVTEQDSKDSTYSLSSTLTLSKADYEKHKVYACEVTHQGLSSPVTKSFNRGECGGGGSGGGGSGGGGSGGGGSGGGGSGGGGSGGGGSQVQLVQSGAEVKKPGASVKLSCTASGFNIKDDYIHWVKKAPGQGLEWIGRIDPADGHTKYAPKFQVKVTITADTSTSTAYLELSSLRSEDTAVYYCARYGYGREVFDYWGQGTTVTVSSASTKGPSVFPLAPCSRSTSESTAALGCLVKDYFPEPVTVSWNSGALTSGVHTFPAVLQSSGLYSLSSVVTVPSSSLGTKTYTCNVDHKPSNTKVDKRVGGGGSGGGGSGGGGSEVQLVESGGGLVKPGGSLRLSCAASGFTFSNYAMSWVREAPGKRLEWVATISNRGSYTYYPDSVKGRFTISRDNAKNSLYLQMNSLRAEDTALYYCARERPMDYWGQGTLVTVSSGGGGSGGGGSGGGGSDIQMTQSPSTLSASVGDRVTITCKASQDVGTAVAWYQKKPGKAPKLLIYWASTRHTGVPDRFSGSGSGTDFTLTISSLQAEDFAVYFCHQHSSNPLTFGQGTKLEIK
notes: as for B1
Take B2: the “IC50 CP (Wieslab)” value in test [1] was found to be 35.4 nM. Further, the “IC50 AP (Wieslab)” value in test [2] is 586 nM. Moreover, in test [3], the Kd (usually the free concentration of one partner at which half of the binding sites on the other are occupied at equilibrium, for simple one-to-one binding) amounted to 1.4 nM; the koff stood at 0.00051 s⁻¹; the kon was 360000 M⁻¹ s⁻¹. In test [4], the Kd amounted to 2.5 nM, the koff worked out at 0.00023 s⁻¹ and the kon worked out at 90000 M⁻¹ s⁻¹.

B3: construct #7: αC1s scFab-(G4S)3-αBb scFab (bispecific antibody)
chain: DIVLTQSPDSLAVSLGERATISCKASQSVDYDGDSYMNWYQQKPGQPPKILIYDASNLESGIPARFSGSGSGTDFTLTISSLEPEDFAIYYCQQSNEDPWTFGGGTKVEIKRTVAAPSVFIFPPSDEQLKSGTASVVCLLNNFYPREAKVQWKVDNALQSGNSQESVTEQDSKDSTYSLSSTLTLSKADYEKHKVYACEVTHQGLSSPVTKSFNRGECGGGGSGGGGSGGGGSGGGGSGGGGSGGGGSGGGGSQVQLVQSGAEVKKPGASVKLSCTASGFNIKDDYIHWVKQAPGQGLEWIGRIDPADGHTKYAPKFQVKVTITADTSTSTAYLELSSLRSEDTAVYYCARYGYGREVFDYWGQGTTVTVSSASTKGPSVFPLAPCSRSTSESTAALGCLVKDYFPEPVTVSWNSGALTSGVHTFPAVLQSSGLYSLSSVVTVPSSSLGTKTYTCNVDHKPSNTKVDKRVGGGGSGGGGSGGGGSDIQMTQSPSTLSASVGDRVTITCKASQDVGTAVAWYQQKPGKAPKLLIYWASTRHTGVPDRFSGSGSGTDFTLTISSLQAEDFAVYFCHQHSSNPLTFGQGTKLEIKRTVAAPSVFIFPPSDEQLKSGTASVVCLLNNFYPREAKVQWKVDNALQSGNSQESVTEQDSKDSTYSLSSTLTLSKADYEKHKVYACEVTHQGLSSPVTKSFNRGECGGGGSGGGGSGGGGSGGGGSGGGGSGGGGSGGGGSEVQLVESGGGLVKPGGSLRLSCAASGFTFSNYAMSWVRQAPGKRLEWVATISNRGSYTYYPDSVKGRFTISRDNAKNSLYLQMNSLRAEDTALYYCARERPMDYWGQGTLVTVSSASTKGPSVFPLAPCSRSTSESTAALGCLVKDYFPEPVTVSWNSGALTSGVHTFPAVLQSSGLYSLSSVVTVPSSSLGTKTYTCNVDHKPSNTKVDKRV
notes: Signal peptide marked by boldface only
For B3, the “IC50 CP (Wieslab)” value in test [1] is 45.9 nM. Also, in test [2], the “IC50 AP (Wieslab)” value was determined as 570 nM. In test [3], this molecule yielded a Kd of 1.8 nM, an off-rate constant (koff) of 0.00047 s⁻¹ and a kon of 260000 M⁻¹ s⁻¹. In test [4], the Kd stood at 9.3 nM, the koff was determined as 0.00054 s⁻¹ and the kon was 60000 M⁻¹ s⁻¹.

B4: construct #11: αC1s scFab-(G4S)3-αBb scFab-CM (bispecific antibody)
chain: DIVLTQSPDSLAVSLGERATISCKASQSVDYDGDSYMNWYQEKPGQPPKILIYDASNLESGIPARFSGSGSGTDFTLTISSLEPEDFAIYYCQQSNEDPWTFGGGTKVEIKRTVAAPSVFIFPPSDEQLKSGTASVVCLLNNFYPREAKVQWKVDNALQSGNSQESVTEQDSKDSTYSLSSTLTLSKADYEKHKVYACEVTHQGLSSPVTKSFNRGECGGGGSGGGGSGGGGSGGGGSGGGGSGGGGSGGGGSQVQLVQSGAEVKKPGASVKLSCTASGFNIKDDYIHWVKKAPGQGLEWIGRIDPADGHTKYAPKFQVKVTITADTSTSTAYLELSSLRSEDTAVYYCARYGYGREVFDYWGQGTTVTVSSASTKGPSVFPLAPCSRSTSESTAALGCLVKDYFPEPVTVSWNSGALTSGVHTFPAVLQSSGLYSLSSVVTVPSSSLGTKTYTCNVDHKPSNTKVDKRVGGGGSGGGGSGGGGSDIQMTQSPSTLSASVGDRVTITCKASQDVGTAVAWYQKKPGKAPKLLIYWASTRHTGVPDRFSGSGSGTDFTLTISSLQAEDFAVYFCHQHSSNPLTFGQGTKLEIKRTVAAPAVFIFPPSDEQLKSGTASVVCLLKNFYPREAKVQWKVDNALQSGNSQESVTEQDSKDSTYSLSSTLTLSKADYEKHKVYACEVTHQGLSSPVTKSFNRGECGGGGSGGGGSGGGGSGGGGSGGGGSGGGGSGGGGSEVQLVESGGGLVKPGGSLRLSCAASGFTFSNYAMSWVREAPGKRLEWVATISNRGSYTYYPDSVKGRFTISRDNAKNSLYLQMNSLRAEDTALYYCARERPMDYWGQGTLVTVSSASTKGPSVFPLAPCSRSTSESTAALGCLVKDYFPEPVTVSWNSGALTSGVHTFPAVLQSSGLYSLSSVVEVPSSSLGTKTYTCNVDHKPSNTKVDKRV
notes: as for B1
For the molecule B4, the “IC50 CP (Wieslab)” value in test [1] came to 49.7 nM. In test [2], the “IC50 AP (Wieslab); curve not saturated, estimated” value was about 1000 nM. In test [3], this molecule yielded a Kd of 2.7 nM, a dissociation rate constant (koff) of 0.00058 s⁻¹ and a kon of 210000 M⁻¹ s⁻¹. In test [4], this molecule yielded a Kd of 8.8 nM, a koff of 0.00051 s⁻¹ and a kon of 60000 M⁻¹ s⁻¹.
